Results as given in patent US20030203464.

Chain of RhoA, P61586 (P61586 whole entry): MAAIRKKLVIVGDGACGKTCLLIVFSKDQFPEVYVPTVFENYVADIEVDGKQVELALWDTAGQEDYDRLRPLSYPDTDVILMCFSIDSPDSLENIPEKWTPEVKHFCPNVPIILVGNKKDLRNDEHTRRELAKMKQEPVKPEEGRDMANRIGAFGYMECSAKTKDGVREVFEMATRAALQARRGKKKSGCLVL
Chain of Cdc42, P60953 (P60953 whole entry, looked up): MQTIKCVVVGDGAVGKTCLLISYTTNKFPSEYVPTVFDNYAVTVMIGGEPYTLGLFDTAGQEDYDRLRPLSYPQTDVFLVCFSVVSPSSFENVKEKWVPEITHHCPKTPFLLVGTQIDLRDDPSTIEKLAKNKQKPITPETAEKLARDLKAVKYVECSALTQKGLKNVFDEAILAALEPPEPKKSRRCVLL

B1: Type I Rac-GEF (protein)
chain: MEYMPMEIRHDLEILQPEEIKLQEAMFELVTSEASYYKSLNLLVSHFMENERIRKILHPSEAHILFSNVLDVLAVSERFLLELEHRMEENIVISDVCDIVYRYAADHFSVYITYVSNQTYQERTYKQLLQEKAAFRELIAQLELDPKCRGLPFSSFLILPFQRITRLKLLVQNILKRVEERSERECTALDAHKELEMVVKACNEGVRKMSRTEQMISIQKKMEFKIKSVPIISHSRWLLKQGELQQMSGPKTSRTLRTKKLFHEIYLFLFNDLLVICRQIPGDKYQVFDSAPRGLLRVEELEDQGQTLANVFILRLLENADDREATYMLKASSQSEMKRWMTSLAPNRRTKFVSFTSRLLDCPQVQCVHPYVAQQPDELTLELADILNILDKTDDGWIFGERLHDQERGWFPSSMTEEILNPKIRSQNLKECFRVHKMDDPQRSQNKDRRKLGSRNRQ
exchange activity on Rac1, RhoA and Cdc42 (RhoA, P61586): but also displays activity against both RhoA and Cdc42
exchange activity on Rac1, RhoA and Cdc42 (Rac1, P63000): Rac GEF is primarily selective for Rac1
exchange activity on Rac1, RhoA and Cdc42 (Cdc42, P60953): but also displays activity against both RhoA and Cdc42

B2: Type II Rac-GEF (protein)
chain: MEYMPMEIRHDLEILQPEEIKLQEAMFELVTSEASYYKSLNLLVSHFMENERIRKILHPSEAHILFSNVLDVLAVSERFLLELEHRMEENIVISDVCDIVYRYAADHFSVYITYVSNQTYQERTYKQLLQEKAAFRELIAQLELDPKCRGLPFSSFLILPFQRITRLKLLVQNILKRVEERSERECTALDAHKELEMVVKACNEGVRKMSRTEQMISIQKKMEFKIKSVPIISHSRWLLKQGELQQMSGPKTSRTLRTKKLFHEIYLFLFNDLLVICRQIPGDKYQVFDSAPRGLLRVEELEDQGQTLANVFILRLLENADDREATYMLKASSQSEMKRWMTSLAPNRRTKFVSFTSRLLDCPQVQCVHPYVAQQPDELTLELADILNILDKTDDGWIFGERLHDQERGWFPSSMTEEILNPKIRSQNLKECFRVHKMDDPQRSQNKDRRKLGSRNRQ
exchange activity on Rac1, RhoA and Cdc42 (RhoA, P61586): but also displays activity against both RhoA and Cdc42
exchange activity on Rac1, RhoA and Cdc42 (Rac1, P63000): Rac GEF is primarily selective for Rac1
exchange activity on Rac1, RhoA and Cdc42 (Cdc42, P60953): but also displays activity against both RhoA and Cdc42
